The values that follow come from patent US20190185537A1 (AstraZeneca / MedImmune, published 2019).

Holding throughout (assay): cell-based or functional assay
The target in test [1] is human GLP-1 receptor (human, UniProt P43220 24-463).
Test [2] concerns the target human glucagon receptor (human, UniProt P47871 26-477).
For test [3], the target named is T1, human glucose-dependent insulinotropic peptide (gastric inhibitory polypeptide) receptor (human) (UniProt P48546).
T1 sequence (looked up): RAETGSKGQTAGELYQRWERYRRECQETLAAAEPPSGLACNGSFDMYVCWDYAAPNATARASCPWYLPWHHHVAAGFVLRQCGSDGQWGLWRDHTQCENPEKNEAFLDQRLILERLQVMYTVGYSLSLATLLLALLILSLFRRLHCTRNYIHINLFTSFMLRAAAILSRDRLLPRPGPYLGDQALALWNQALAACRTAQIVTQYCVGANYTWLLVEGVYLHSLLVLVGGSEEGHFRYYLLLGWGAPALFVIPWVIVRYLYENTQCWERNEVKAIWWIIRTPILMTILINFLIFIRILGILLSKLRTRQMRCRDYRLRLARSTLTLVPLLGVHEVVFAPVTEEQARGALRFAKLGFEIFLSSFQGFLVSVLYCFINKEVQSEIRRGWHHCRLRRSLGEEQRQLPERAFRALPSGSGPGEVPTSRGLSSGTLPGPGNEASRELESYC

Numbered stars: 1 amine (or outer) side, 2 acyl side, 3 side chain; on linkers, the order of the positions; unused ones are H or OH. Side chains are listed from the residue outwards. Ends that are not written are not given here. * marks the point of attachment. γGlu = O=C(O)[C@H](CCC(=O)[*:2])N[*:1]; Palmitoyl = CCCCCCCCCCCCCCCC(=O)*

human glucagon receptor, sequence (P47871 26-477): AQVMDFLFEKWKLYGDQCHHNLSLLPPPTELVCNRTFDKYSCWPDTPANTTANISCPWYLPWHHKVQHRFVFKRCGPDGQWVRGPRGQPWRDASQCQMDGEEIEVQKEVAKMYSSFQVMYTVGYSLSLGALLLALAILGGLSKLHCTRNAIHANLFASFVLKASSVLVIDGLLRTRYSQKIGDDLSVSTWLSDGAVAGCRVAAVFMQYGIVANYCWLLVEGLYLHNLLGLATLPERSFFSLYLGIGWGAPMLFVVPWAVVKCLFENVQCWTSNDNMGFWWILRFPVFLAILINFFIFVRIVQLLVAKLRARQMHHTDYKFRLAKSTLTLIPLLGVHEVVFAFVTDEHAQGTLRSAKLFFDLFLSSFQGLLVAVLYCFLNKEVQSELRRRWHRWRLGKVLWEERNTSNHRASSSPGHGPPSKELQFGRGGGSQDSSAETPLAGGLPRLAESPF
human GLP-1 receptor, sequence (P43220 24-463): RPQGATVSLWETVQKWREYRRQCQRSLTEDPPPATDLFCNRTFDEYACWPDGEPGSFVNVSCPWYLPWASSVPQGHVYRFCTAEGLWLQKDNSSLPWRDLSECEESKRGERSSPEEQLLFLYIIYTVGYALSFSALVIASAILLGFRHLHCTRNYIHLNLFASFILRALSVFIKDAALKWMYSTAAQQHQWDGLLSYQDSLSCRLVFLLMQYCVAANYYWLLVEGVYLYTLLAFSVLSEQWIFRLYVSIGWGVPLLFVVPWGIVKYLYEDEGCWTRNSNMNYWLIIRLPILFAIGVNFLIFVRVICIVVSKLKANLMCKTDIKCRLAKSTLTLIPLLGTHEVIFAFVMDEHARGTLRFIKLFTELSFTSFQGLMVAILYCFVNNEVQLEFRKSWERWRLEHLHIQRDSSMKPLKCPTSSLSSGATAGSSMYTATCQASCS

B1: g512 (peptide)
peptide: HGQGTFTSDYSKYLDSK([γGlu-Palmitoyl])RAQDFVQWLEAGG-NH2
modifications: N-terminus assumed
SMILES: CCCCCCCCCCCCCCCC(=O)N[C@@H](CCC(=O)NCCCC[C@H](NC(=O)[C@H](CO)NC(=O)[C@H](CC(=O)O)NC(=O)[C@H](CC(C)C)NC(=O)[C@H](Cc1ccc(O)cc1)NC(=O)[C@H](CCCCN)NC(=O)[C@H](CO)NC(=O)[C@H](Cc1ccc(O)cc1)NC(=O)[C@H](CC(=O)O)NC(=O)[C@H](CO)NC(=O)[C@@H](NC(=O)[C@H](Cc1ccccc1)NC(=O)[C@@H](NC(=O)CNC(=O)[C@H](CCC(N)=O)NC(=O)CNC(=O)[C@@H](N)Cc1c[nH]cn1)[C@@H](C)O)[C@@H](C)O)C(=O)N[C@@H](CCCNC(=N)N)C(=O)N[C@@H](C)C(=O)N[C@@H](CCC(N)=O)C(=O)N[C@@H](CC(=O)O)C(=O)N[C@@H](Cc1ccccc1)C(=O)N[C@H](C(=O)N[C@@H](CCC(N)=O)C(=O)N[C@@H](Cc1c[nH]c2ccccc12)C(=O)N[C@@H](CC(C)C)C(=O)N[C@@H](CCC(=O)O)C(=O)N[C@@H](C)C(=O)NCC(=O)NCC(N)=O)C(C)C)C(=O)O
In the case of B1, the cAMP EC50 (assay 1) in test [1] was 0.098 nM; in test [2] it was 0.0606 nM; in test [3], 407 nM.

B2: g804 (peptide)
peptide: HSQGTFTSDYSKYK([γGlu-Palmitoyl])DSRRARDFVAWLEA-NH2
modifications: N-terminus assumed
SMILES: CCCCCCCCCCCCCCCC(=O)N[C@@H](CCC(=O)NCCCC[C@H](NC(=O)[C@H](Cc1ccc(O)cc1)NC(=O)[C@H](CCCCN)NC(=O)[C@H](CO)NC(=O)[C@H](Cc1ccc(O)cc1)NC(=O)[C@H](CC(=O)O)NC(=O)[C@H](CO)NC(=O)[C@@H](NC(=O)[C@H](Cc1ccccc1)NC(=O)[C@@H](NC(=O)CNC(=O)[C@H](CCC(N)=O)NC(=O)[C@H](CO)NC(=O)[C@@H](N)Cc1c[nH]cn1)[C@@H](C)O)[C@@H](C)O)C(=O)N[C@@H](CC(=O)O)C(=O)N[C@@H](CO)C(=O)N[C@@H](CCCNC(=N)N)C(=O)N[C@@H](CCCNC(=N)N)C(=O)N[C@@H](C)C(=O)N[C@@H](CCCNC(=N)N)C(=O)N[C@@H](CC(=O)O)C(=O)N[C@@H](Cc1ccccc1)C(=O)N[C@H](C(=O)N[C@@H](C)C(=O)N[C@@H](Cc1c[nH]c2ccccc12)C(=O)N[C@@H](CC(C)C)C(=O)N[C@@H](CCC(=O)O)C(=O)N[C@@H](C)C(N)=O)C(C)C)C(=O)O
B2: the cAMP EC50 (assay 1) in test [1] was found to be 0.0715 nM; in test [2], 0.00195 nM; in test [3], 99.7 nM.

B3: g782 (peptide)
peptide: HSQGTFTSDYSKYLDSRK([γGlu-Palmitoyl])ARDFVAWLEAGG-NH2
modifications: N-terminus assumed
SMILES: CCCCCCCCCCCCCCCC(=O)N[C@@H](CCC(=O)NCCCC[C@H](NC(=O)[C@H](CCCNC(=N)N)NC(=O)[C@H](CO)NC(=O)[C@H](CC(=O)O)NC(=O)[C@H](CC(C)C)NC(=O)[C@H](Cc1ccc(O)cc1)NC(=O)[C@H](CCCCN)NC(=O)[C@H](CO)NC(=O)[C@H](Cc1ccc(O)cc1)NC(=O)[C@H](CC(=O)O)NC(=O)[C@H](CO)NC(=O)[C@@H](NC(=O)[C@H](Cc1ccccc1)NC(=O)[C@@H](NC(=O)CNC(=O)[C@H](CCC(N)=O)NC(=O)[C@H](CO)NC(=O)[C@@H](N)Cc1c[nH]cn1)[C@@H](C)O)[C@@H](C)O)C(=O)N[C@@H](C)C(=O)N[C@@H](CCCNC(=N)N)C(=O)N[C@@H](CC(=O)O)C(=O)N[C@@H](Cc1ccccc1)C(=O)N[C@H](C(=O)N[C@@H](C)C(=O)N[C@@H](Cc1c[nH]c2ccccc12)C(=O)N[C@@H](CC(C)C)C(=O)N[C@@H](CCC(=O)O)C(=O)N[C@@H](C)C(=O)NCC(=O)NCC(N)=O)C(C)C)C(=O)O
With B3, the cAMP EC50 (assay 1) was 0.0254 nM in test [1], 0.156 nM in test [2] and 1430 nM in test [3].

B4: g747 (peptide)
peptide: HSQGTFTSDYSKYLDSRRAQDFVQWLEAGGK([γGlu-Palmitoyl])-NH2
modifications: N-terminus assumed
SMILES: CCCCCCCCCCCCCCCC(=O)N[C@@H](CCC(=O)NCCCC[C@H](NC(=O)CNC(=O)CNC(=O)[C@H](C)NC(=O)[C@H](CCC(=O)O)NC(=O)[C@H](CC(C)C)NC(=O)[C@H](Cc1c[nH]c2ccccc12)NC(=O)[C@H](CCC(N)=O)NC(=O)[C@@H](NC(=O)[C@H](Cc1ccccc1)NC(=O)[C@H](CC(=O)O)NC(=O)[C@H](CCC(N)=O)NC(=O)[C@H](C)NC(=O)[C@H](CCCNC(=N)N)NC(=O)[C@H](CCCNC(=N)N)NC(=O)[C@H](CO)NC(=O)[C@H](CC(=O)O)NC(=O)[C@H](CC(C)C)NC(=O)[C@H](Cc1ccc(O)cc1)NC(=O)[C@H](CCCCN)NC(=O)[C@H](CO)NC(=O)[C@H](Cc1ccc(O)cc1)NC(=O)[C@H](CC(=O)O)NC(=O)[C@H](CO)NC(=O)[C@@H](NC(=O)[C@H](Cc1ccccc1)NC(=O)[C@@H](NC(=O)CNC(=O)[C@H](CCC(N)=O)NC(=O)[C@H](CO)NC(=O)[C@@H](N)Cc1c[nH]cn1)[C@@H](C)O)[C@@H](C)O)C(C)C)C(N)=O)C(=O)O
B4: the cAMP EC50 (assay 1) in test [1] stood at 3.16 nM; in test [2] it was 0.0942 nM; in test [3] it was 1040 nM.

B5: g781 (peptide)
peptide: HSQGTFTSDYSKYLDK([γGlu-Palmitoyl])RRARDFVAWLEAGG-NH2
modifications: N-terminus assumed
SMILES: CCCCCCCCCCCCCCCC(=O)N[C@@H](CCC(=O)NCCCC[C@H](NC(=O)[C@H](CC(=O)O)NC(=O)[C@H](CC(C)C)NC(=O)[C@H](Cc1ccc(O)cc1)NC(=O)[C@H](CCCCN)NC(=O)[C@H](CO)NC(=O)[C@H](Cc1ccc(O)cc1)NC(=O)[C@H](CC(=O)O)NC(=O)[C@H](CO)NC(=O)[C@@H](NC(=O)[C@H](Cc1ccccc1)NC(=O)[C@@H](NC(=O)CNC(=O)[C@H](CCC(N)=O)NC(=O)[C@H](CO)NC(=O)[C@@H](N)Cc1c[nH]cn1)[C@@H](C)O)[C@@H](C)O)C(=O)N[C@@H](CCCNC(=N)N)C(=O)N[C@@H](CCCNC(=N)N)C(=O)N[C@@H](C)C(=O)N[C@@H](CCCNC(=N)N)C(=O)N[C@@H](CC(=O)O)C(=O)N[C@@H](Cc1ccccc1)C(=O)N[C@H](C(=O)N[C@@H](C)C(=O)N[C@@H](Cc1c[nH]c2ccccc12)C(=O)N[C@@H](CC(C)C)C(=O)N[C@@H](CCC(=O)O)C(=O)N[C@@H](C)C(=O)NCC(=O)NCC(N)=O)C(C)C)C(=O)O
As to B5, the values for the cAMP EC50 (assay 1) in test [1], in test [2] and in test [3] were 0.104 nM, 0.00286 nM and 402 nM, respectively.
